Key:
[1] = target: RSV fusion glycoprotein (RSV-F) (respiratory syncytial virus); test: SPR; F protein loaded on streptavidin sensors, mAb in solution
Protocol: Binding affinity of mAbs for RSV-F protein, MPV-F D280 protein, and MPV-F N280 F variant protein was assessed using surface plasmon resonance (SPR).

DS-Cav1 RSV F = target: T1, DS-Cav1 RSV F (respiratory syncytial virus); test: ELISA on DS-Cav1 RSV F
T1 construct: also called DC-VCav1

Row | Binder | Kd [1] | EC50 (DS-Cav1 RSV F)
1 | MPK162 (antibody, V domains shown, VH and VL only) VH: EVQLVESGGGLVKPGDSLRLSCAASGFSLSSYYMFWIRQAPGKGLEWVSDISGGSTFTNYADSVKGRFTISRDNAKKVLYLQMNSLRVDDSAVYYCVRGSSISPNWFESWGQGALVTVSS VL: QSVLTQPPSVSGAPGQRVTISCTGTSSNIGAGYDVHWYQQVPGTAPKLLIYGNSNRPSGVPDRFSGSKSGTAASLAINGLQTEDEAEYYCQSYDRSLTGSYVFGSGTRVFVR | 100000 pM | 
2 | MPK146 (antibody, V domains shown, VH and VL only) VH: QVQLVESGGGLVKPGGSLRLSCAASGFTFSGYYMIWIRQAPGKGLEWIASISGSSNYIDYADSVRGRFTISRDNARNILDLQMNSLRAGDTALYYCATEQVPSPGPFDLWGQGTLVTVSS VL: QSVLTQPPSVSGAPGQRVTISCTGSNSNLGAGYDVHWYQQFPGTSPKLLIYRNTNRPSGVPDRFAGSKSGTSASLAITGLQAEDEADYYCQSYDRSLSGWVFGGGTKLTVL | 9.5 pM | 
3 | MPK155 (antibody, V domains shown, VH and VL only) VH: EVQLVESGGGLVKPGGSLRLSCEASGISLSGYYMIWIRQAPGKGLEWISSISSSSNYIDYADSVRGRFTISRHNGQNTLYLQMNSLRVEDTAVYFCATEQTPSPGPFDLWGQGILVTVSS VL: QSVLTQPPSVSGAPGQRVTIFCTGTSSNLGAGYDVHWYQQFPGTSPKLLIYRYTNRPSGVPDRFSGSKSGSSASLAIAGLQAEDEADYYCQSYDRSVSGWVFGGGTKLTVL | 6.3 pM | 
4 | MPK204 (antibody, V domains shown, VH and VL only) VH: QVQLVESGGGLVKPGGSLRLSCEASGLSLSGYYMIWIRQAPGKGLEWISSISSSSNYIDYADSVKGRFTISRHNGQNTLYLQMNSLRVEDTAVYYCATEQTPSPGPFDLWGQGTLVTVSS VL: QSVLTQPPSVSGAPGQRVTISCTGTSSNIGTGYDVHWYQQFPGTSPKLLIYRNTNRPSGVPDRFSGSKSGSSASLAIAGLQAEDEADYYCQSYDRSVSGWVFGGGTKLTVL | 290 pM | 
5 | MPK151 (antibody, V domains shown, VH and VL only) VH: EVQLVESGGGLVKPGGSLRLSCAASGLTISGYYMIWIRQAPGKGLEWISDISASSTYTDYAESVKGRFSISRDNGQNTVYLQMNSLRAEDTAVYYCATEQTPSPGPFDLWGQGTLVTVSS VL: QSVLTQPPSVSGAPGQKITISCTGGSSNFGAGYDVHWYQQFPGTSPKLLIYRNTFRPSGVPDRFSGSKSGTSASLAITGLQAEDEADYYCQSYDRSLSGWVFGGGTKLTVL | 80 pM | 
6 | MPK145 (antibody, V domains shown, VH and VL only) VH: EVQLVESGGGLVEPGGSLRLSCAASGFTISGYGMSWVRQAPGKGLEWVSSISASSSYIYYGDAMKGRITISRDNGWNSMYLQMNSLRTEDTAVYYCATAPIEPPYFDLWGRGTLVTVSS VL: QSVVTQPPSVSGAPGQRVTISCTGSSSNIGAGYDVHWYQQFPGKAPKVLIYGNNNRPSGVPDRFAASNSGASASLAITGLQAEDEAAYFCQSYDRRLSGPVFGGGTKLTVL | 1 pM | 
7 | MPK149 (antibody, V domains shown, VH and VL only) VH: QVQLVESGGGLVKPGGSLRLSCEASGFTISGYFMIWIRQAPGKGLEWISSISGSSTYTDYAESVKGRFTISRDNGRSTLYLQMNSLRVEDTAVYYCATEQTPSPGPFDLWGQGTLVTVSS VL: QSVVTQPPSVSGAPGQRVTISCTGTSSNIGAGYDVHWYQQFPGTSPRLLINRNTNRPSGVPDRFSGSQSGSSASLAIAGLQAEDEADYYCQSYDRSVSGWVFGGGTKLTVL | 1 pM | 
8 | MPK153 (antibody, V domains shown, VH and VL only) VH: EVHLVESGGGLVKPGGSLRLSCAASGFTFTGYFMIWIRQAPGKGLEWISYISSSSNYINYADSVKGRFTISRDNGQNTLYLQMNSLRPDDTAVYYCATEQVPSPGPFDLWGQGTLVTVSS VL: QSVLTQPPSVSGAPGQRVIISCTGTSSNIGAGYDVHWYQQFPGASPKLLIFRNTDRPSGVPDRFSGSKSGSSASLAIAGLQAEDEADYYCQSYDRSLDGWVFGGGTKVTVL | 460 pM | 
9 | MPK152 (antibody, V domains shown, VH and VL only) VH: EVQLVESGGGLVKPGGSLRLSCAASGLTISGYYMIWIRQAPGKGLEWISYISGSSSYTNYADSVKGRFTISRDNGQNTLFLQMDSLRVEDTAVYFCATEETPSPGPFGLWGQGTLVTVSS VL: QSVVTQPPSVSGAPGQRVTISCTGTSSNIGAGYDVHWYQQFPGTSPKLLIFRNTNRPSGVPDRFSGSTSGSSASLAITGLQTEDEADYYCQSYDRSLDGWVFGGGTELTVL | 1 pM | 
10 | MPK150-v2 (antibody, V domains shown, VH and VL only) VH: EVQLVESGGGLVKPGGSLRLSCEASGISLSGYYMIWIRQAPGKGLEWISSISGSSTYIDYADSVRGRFTISRHNGQNTIYLQMNSLRVEDTAVYFCATEQTPSPGPFELWGRGILVTVSS VL: QSVLTQPPSVSGAPGQRVTIFCTGTSSNIGTGYDVHWYQQFPGTSPKLLIFRNSNRPSGVPDRFSGSKSGSSASLAIAGLQAEDEADYYCQSYDRGVNGWVFGGGTKLTVL | 1 pM | 
11 | MPK157 (antibody, V domains shown, VH and VL only) VH: EVQLVESGGGLVKPGGSLRLSCSASGFTLSGYNMNWVRQAPGKGLEWISYISASSSYINYADSVKGRFTISRDNGRSSLYLQMNSLRAEDTAVYFCTTQAELPGWFDPWGQGTLVTVSS VL: QSVLTQPPSMSGAPGQRVTISCTGSSSNIGAGYDVNWYRQLPGTAPQLLIYRNTNRPSGVPDRFSGSNSGTSASLAITGLQADDEAHYYCQSYDRSLSGWVFGGGTKLTVL | 1 pM | 
12 | MPK174-v2 (antibody, V domains shown, VH and VL only) VH: EVQLVESGGGLVKPGGSLRLSCAASRFKFGDYYMSWIRQAPGKGLEWVSNISPSSSYTNYADSVKGRFTISRDNAKNLLYLQMNSLRAEDTAVYYCARESCSGGSCSLHGMDVWGQGTTVTVAS VL: QSVLTQPPSVSGAPGQRVTISCTGSSSNIGAGYDVHWYQQLPGTAPKLLIYDNSNRPSGVPDRFSGSKSGTSASLAITGLRAEDDADYYCQSYDRSLGGSIFGGGTKLTVL | 1 pM | 
13 | MPK196 (antibody, V domains shown, VH and VL only) VH: QVQLVESGGGLVKPGGSLRLSCAASRFKFGDYYMSWIRQAPGKGLEWVSNISPSSSYTNYADSVKGRFTISRDNANNLLYLQMNSLRAEDTAVYYCARESCSGGSCSLHGMDVWGQGTTVTVAS VL: QSVLTQPPSVSGAPGQRVTISCTGSSSNIGAGYDVHWYQQLPGTAPKLLIYDNSNRPSGVPDRFSGSKSGTSASLAITGLRAEDDADYYCQSYDRSLGGSIFGGGTKLTVL | 1 pM | 
14 | MPK158 (antibody, V domains shown, VH and VL only) VH: EVQLVESGGGLVKPGGSLRLSCAASGFSISGFYMIWIRQAPGKGLEWISDISASSSYIDYADSVKGRFTISRDNGQNTVHLLMNNLRADDTGVYYCAREQTPSPGPFDLWGQGTLVTVST VL: QPVLTQPPSVSGAPGQRVTISCTGRSSNIGAGYDVHWYQHLPGTSPKLLIYRNSNRPSGVPDRFSGSTSGTSASLAITGLQADDEADYYCQAYDRILGGWAFGGGTKLTVL | 1 pM | 
15 | MPH12 VH-FRGL / MPH12 VL-FRGL (antibody, V domains shown, MPH12 variant; VH and VL only) VH: QVQLVESGGGLVKPGGSLRLSCAASGFTFSGFYMKWIRQAPGKGLEWVSSISASGSYTNYADSVEGRFTISRDNAKNSLYLQMNSLRAEDTAVYYCARGDSYCGASACHGEFFHKWGQGTLVTVSS VL: QSVLTQPPSVSGAPGQRVTISCTGSDSNIGADFDVHWYQQLPGTAPKLLIYGNINRPSGVPDRFSGSKSGTSASLAITGLQAEDEADYYCQSYDRSLHYVFGTGTKVTVL |  | 0.0305 µg/mL
16 | MPH12 VH-FRGL / MPH12 VL-D25S (antibody, V domains shown, MPH12 variant; VH and VL only) VH: QVQLVESGGGLVKPGGSLRLSCAASGFTFSGFYMKWIRQAPGKGLEWVSSISASGSYTNYADSVEGRFTISRDNAKNSLYLQMNSLRAEDTAVYYCARGDSYCGASACHGEFFHKWGQGTLVTVSS VL: QSVLTQPPSVSGAPGQRVTISCTGSSSNIGADFDVHWYQQLPGTAPKLLIYGNINRPSGVPDRFSGSRSGTSAFLAITRLQAEDEADYYCQSYDRSLHYVFGAGTKVTVL |  | 0.0219 µg/mL
